Data published in patent US20210388087A1 (Chugai, published 2021).

Target: T1, CD3 epsilon homodimer protein (UniProt P07766 23-126)
T1 construct: immobilized on Sensor chip CM4 by amine coupling; also called CD3 (CD3 epsilon)
Assay: SPR (Biacore T200), CD3 epsilon homodimer on CM4 chip, one-arm antibody as analyte, 25 C;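 note: homodimer attached to the sensor surface via amine coupling, HBS-EP+ used as running buffer during binding runs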

T1 sequence (P07766 23-126): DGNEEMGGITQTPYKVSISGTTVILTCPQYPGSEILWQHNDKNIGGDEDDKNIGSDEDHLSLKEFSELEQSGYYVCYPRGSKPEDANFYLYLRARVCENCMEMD

Binder | ratio of amounts bound (altered form / CE115HA000)
CE115HA000 K52W one-arm antibody (antibody, human IgG1, kappa, L234A L235A, N297A, name in Kabat numbering) heavy: QVQLVESGGGVVQPGRSLRLSCAASGFTFSNAWMHWVRQAPGKGLEWVAQIWAKSNNYATYYAESVKGRFTISRDDSKNSLYLQMNSLKTEDTAVYYCRYVHYGAYYGVDAWGQGTTVTVSSASTKGPSVFPLAPSSKSTSGGTAALGCLVKDYFPEPVTVSWNSGALTSGVHTFPAVLQSSGLYSLSSVVTVPSSSLGTQTYICNVNHKPSNTKVDKKVEPKSCDKTHTCPPCPAPEAAGGPSVFLFPPKPKDTLMISRTPEVTCVVVDVSHEDPEVKFNWYVDGVEVHNAKTKPREEQYASTYRVVSVLTVLHQDWLNGKEYKCKVSNKALPAPIEKTISKAKGQPREPQVYTLPPSRCELTKNQVSLSCAVKGFYPSDIAVEWESNGQPENNYKTTPPVLDSDGSFFLVSKLTVDKSRWQQGNVFSCSVMHEALHNHYTQKSLSLSPDYKDDDDK EPKSSDKTHTCPPCPAPELLGGPSVFLFPPKPKDTLMISRTPEVTCVVVDVSHEDPEVKFNWYVDGVEVHNAKTKPREEQYNSTYRVVSVLTVLHQDWLNGKEYKCKVSNKALPAPIEKTISKAKGQPREPQVCTLPPSRDELTKNQVSLWCLVKGFYPSDIAVEWESNGQPENNYKTTPPVLDSDGSFFLYSKLTVDKSRWQQGNVFSCSVMHEALHNRYTQKSLSLSP light: DIVMTQSPLSLPVTPGEPASISCRSSQSLVHSNRNTYLHWYQQKPGQAPRLLIYKVSNRFSGVPDRFSGSGSGTDFTLKISRVEAEDVGVYYCGQGTQVPYTFGQGTKLEIKRTVAAPSVFIFPPSDEQLKSGTASVVCLLNNFYPREAKVQWKVDNALQSGNSQESVTEQDSKDSTYSLSSTLTLSKADYEKHKVYACEVTHQGLSSPVTKSFNRGEC | 0.22
CE115HA000 K52Y one-arm antibody (antibody, human IgG1, kappa, L234A L235A, N297A, name in Kabat numbering) heavy: QVQLVESGGGVVQPGRSLRLSCAASGFTFSNAWMHWVRQAPGKGLEWVAQIYAKSNNYATYYAESVKGRFTISRDDSKNSLYLQMNSLKTEDTAVYYCRYVHYGAYYGVDAWGQGTTVTVSSASTKGPSVFPLAPSSKSTSGGTAALGCLVKDYFPEPVTVSWNSGALTSGVHTFPAVLQSSGLYSLSSVVTVPSSSLGTQTYICNVNHKPSNTKVDKKVEPKSCDKTHTCPPCPAPEAAGGPSVFLFPPKPKDTLMISRTPEVTCVVVDVSHEDPEVKFNWYVDGVEVHNAKTKPREEQYASTYRVVSVLTVLHQDWLNGKEYKCKVSNKALPAPIEKTISKAKGQPREPQVYTLPPSRCELTKNQVSLSCAVKGFYPSDIAVEWESNGQPENNYKTTPPVLDSDGSFFLVSKLTVDKSRWQQGNVFSCSVMHEALHNHYTQKSLSLSPDYKDDDDK EPKSSDKTHTCPPCPAPELLGGPSVFLFPPKPKDTLMISRTPEVTCVVVDVSHEDPEVKFNWYVDGVEVHNAKTKPREEQYNSTYRVVSVLTVLHQDWLNGKEYKCKVSNKALPAPIEKTISKAKGQPREPQVCTLPPSRDELTKNQVSLWCLVKGFYPSDIAVEWESNGQPENNYKTTPPVLDSDGSFFLYSKLTVDKSRWQQGNVFSCSVMHEALHNRYTQKSLSLSP light: DIVMTQSPLSLPVTPGEPASISCRSSQSLVHSNRNTYLHWYQQKPGQAPRLLIYKVSNRFSGVPDRFSGSGSGTDFTLKISRVEAEDVGVYYCGQGTQVPYTFGQGTKLEIKRTVAAPSVFIFPPSDEQLKSGTASVVCLLNNFYPREAKVQWKVDNALQSGNSQESVTEQDSKDSTYSLSSTLTLSKADYEKHKVYACEVTHQGLSSPVTKSFNRGEC | 0.18
CE115HA000 K52bA one-arm antibody (antibody, human IgG1, kappa, L234A L235A, N297A, name in Kabat numbering) heavy: QVQLVESGGGVVQPGRSLRLSCAASGFTFSNAWMHWVRQAPGKGLEWVAQIKAASNNYATYYAESVKGRFTISRDDSKNSLYLQMNSLKTEDTAVYYCRYVHYGAYYGVDAWGQGTTVTVSSASTKGPSVFPLAPSSKSTSGGTAALGCLVKDYFPEPVTVSWNSGALTSGVHTFPAVLQSSGLYSLSSVVTVPSSSLGTQTYICNVNHKPSNTKVDKKVEPKSCDKTHTCPPCPAPEAAGGPSVFLFPPKPKDTLMISRTPEVTCVVVDVSHEDPEVKFNWYVDGVEVHNAKTKPREEQYASTYRVVSVLTVLHQDWLNGKEYKCKVSNKALPAPIEKTISKAKGQPREPQVYTLPPSRCELTKNQVSLSCAVKGFYPSDIAVEWESNGQPENNYKTTPPVLDSDGSFFLVSKLTVDKSRWQQGNVFSCSVMHEALHNHYTQKSLSLSPDYKDDDDK EPKSSDKTHTCPPCPAPELLGGPSVFLFPPKPKDTLMISRTPEVTCVVVDVSHEDPEVKFNWYVDGVEVHNAKTKPREEQYNSTYRVVSVLTVLHQDWLNGKEYKCKVSNKALPAPIEKTISKAKGQPREPQVCTLPPSRDELTKNQVSLWCLVKGFYPSDIAVEWESNGQPENNYKTTPPVLDSDGSFFLYSKLTVDKSRWQQGNVFSCSVMHEALHNRYTQKSLSLSP light: DIVMTQSPLSLPVTPGEPASISCRSSQSLVHSNRNTYLHWYQQKPGQAPRLLIYKVSNRFSGVPDRFSGSGSGTDFTLKISRVEAEDVGVYYCGQGTQVPYTFGQGTKLEIKRTVAAPSVFIFPPSDEQLKSGTASVVCLLNNFYPREAKVQWKVDNALQSGNSQESVTEQDSKDSTYSLSSTLTLSKADYEKHKVYACEVTHQGLSSPVTKSFNRGEC | 0.67

Now from value to binder:

ratio of amounts bound (altered form / CE115HA000) | Binder
0.27 | CE115HA000 K52bN one-arm antibody (antibody, human IgG1, kappa, L234A L235A, N297A, name in Kabat numbering) heavy: QVQLVESGGGVVQPGRSLRLSCAASGFTFSNAWMHWVRQAPGKGLEWVAQIKANSNNYATYYAESVKGRFTISRDDSKNSLYLQMNSLKTEDTAVYYCRYVHYGAYYGVDAWGQGTTVTVSSASTKGPSVFPLAPSSKSTSGGTAALGCLVKDYFPEPVTVSWNSGALTSGVHTFPAVLQSSGLYSLSSVVTVPSSSLGTQTYICNVNHKPSNTKVDKKVEPKSCDKTHTCPPCPAPEAAGGPSVFLFPPKPKDTLMISRTPEVTCVVVDVSHEDPEVKFNWYVDGVEVHNAKTKPREEQYASTYRVVSVLTVLHQDWLNGKEYKCKVSNKALPAPIEKTISKAKGQPREPQVYTLPPSRCELTKNQVSLSCAVKGFYPSDIAVEWESNGQPENNYKTTPPVLDSDGSFFLVSKLTVDKSRWQQGNVFSCSVMHEALHNHYTQKSLSLSPDYKDDDDK EPKSSDKTHTCPPCPAPELLGGPSVFLFPPKPKDTLMISRTPEVTCVVVDVSHEDPEVKFNWYVDGVEVHNAKTKPREEQYNSTYRVVSVLTVLHQDWLNGKEYKCKVSNKALPAPIEKTISKAKGQPREPQVCTLPPSRDELTKNQVSLWCLVKGFYPSDIAVEWESNGQPENNYKTTPPVLDSDGSFFLYSKLTVDKSRWQQGNVFSCSVMHEALHNRYTQKSLSLSP light: DIVMTQSPLSLPVTPGEPASISCRSSQSLVHSNRNTYLHWYQQKPGQAPRLLIYKVSNRFSGVPDRFSGSGSGTDFTLKISRVEAEDVGVYYCGQGTQVPYTFGQGTKLEIKRTVAAPSVFIFPPSDEQLKSGTASVVCLLNNFYPREAKVQWKVDNALQSGNSQESVTEQDSKDSTYSLSSTLTLSKADYEKHKVYACEVTHQGLSSPVTKSFNRGEC
0.61 | CE115HA000 K52bL one-arm antibody (antibody, human IgG1, kappa, L234A L235A, N297A, name in Kabat numbering) heavy: QVQLVESGGGVVQPGRSLRLSCAASGFTFSNAWMHWVRQAPGKGLEWVAQIKALSNNYATYYAESVKGRFTISRDDSKNSLYLQMNSLKTEDTAVYYCRYVHYGAYYGVDAWGQGTTVTVSSASTKGPSVFPLAPSSKSTSGGTAALGCLVKDYFPEPVTVSWNSGALTSGVHTFPAVLQSSGLYSLSSVVTVPSSSLGTQTYICNVNHKPSNTKVDKKVEPKSCDKTHTCPPCPAPEAAGGPSVFLFPPKPKDTLMISRTPEVTCVVVDVSHEDPEVKFNWYVDGVEVHNAKTKPREEQYASTYRVVSVLTVLHQDWLNGKEYKCKVSNKALPAPIEKTISKAKGQPREPQVYTLPPSRCELTKNQVSLSCAVKGFYPSDIAVEWESNGQPENNYKTTPPVLDSDGSFFLVSKLTVDKSRWQQGNVFSCSVMHEALHNHYTQKSLSLSPDYKDDDDK EPKSSDKTHTCPPCPAPELLGGPSVFLFPPKPKDTLMISRTPEVTCVVVDVSHEDPEVKFNWYVDGVEVHNAKTKPREEQYNSTYRVVSVLTVLHQDWLNGKEYKCKVSNKALPAPIEKTISKAKGQPREPQVCTLPPSRDELTKNQVSLWCLVKGFYPSDIAVEWESNGQPENNYKTTPPVLDSDGSFFLYSKLTVDKSRWQQGNVFSCSVMHEALHNRYTQKSLSLSP light: DIVMTQSPLSLPVTPGEPASISCRSSQSLVHSNRNTYLHWYQQKPGQAPRLLIYKVSNRFSGVPDRFSGSGSGTDFTLKISRVEAEDVGVYYCGQGTQVPYTFGQGTKLEIKRTVAAPSVFIFPPSDEQLKSGTASVVCLLNNFYPREAKVQWKVDNALQSGNSQESVTEQDSKDSTYSLSSTLTLSKADYEKHKVYACEVTHQGLSSPVTKSFNRGEC
0.27 | CE115HA000 K52bD one-arm antibody (antibody, human IgG1, kappa, L234A L235A, N297A, name in Kabat numbering) heavy: QVQLVESGGGVVQPGRSLRLSCAASGFTFSNAWMHWVRQAPGKGLEWVAQIKADSNNYATYYAESVKGRFTISRDDSKNSLYLQMNSLKTEDTAVYYCRYVHYGAYYGVDAWGQGTTVTVSSASTKGPSVFPLAPSSKSTSGGTAALGCLVKDYFPEPVTVSWNSGALTSGVHTFPAVLQSSGLYSLSSVVTVPSSSLGTQTYICNVNHKPSNTKVDKKVEPKSCDKTHTCPPCPAPEAAGGPSVFLFPPKPKDTLMISRTPEVTCVVVDVSHEDPEVKFNWYVDGVEVHNAKTKPREEQYASTYRVVSVLTVLHQDWLNGKEYKCKVSNKALPAPIEKTISKAKGQPREPQVYTLPPSRCELTKNQVSLSCAVKGFYPSDIAVEWESNGQPENNYKTTPPVLDSDGSFFLVSKLTVDKSRWQQGNVFSCSVMHEALHNHYTQKSLSLSPDYKDDDDK EPKSSDKTHTCPPCPAPELLGGPSVFLFPPKPKDTLMISRTPEVTCVVVDVSHEDPEVKFNWYVDGVEVHNAKTKPREEQYNSTYRVVSVLTVLHQDWLNGKEYKCKVSNKALPAPIEKTISKAKGQPREPQVCTLPPSRDELTKNQVSLWCLVKGFYPSDIAVEWESNGQPENNYKTTPPVLDSDGSFFLYSKLTVDKSRWQQGNVFSCSVMHEALHNRYTQKSLSLSP light: DIVMTQSPLSLPVTPGEPASISCRSSQSLVHSNRNTYLHWYQQKPGQAPRLLIYKVSNRFSGVPDRFSGSGSGTDFTLKISRVEAEDVGVYYCGQGTQVPYTFGQGTKLEIKRTVAAPSVFIFPPSDEQLKSGTASVVCLLNNFYPREAKVQWKVDNALQSGNSQESVTEQDSKDSTYSLSSTLTLSKADYEKHKVYACEVTHQGLSSPVTKSFNRGEC
